Laboratory results reported in the supplement of paper PMC9170038.

System: MS2 coat protein
Assay: apparent KD of MS2 coat protein; designed switch direction (-1 OFF switch, 1 ON switch): 1; higher = weaker reporter binding
Procedure, shortened: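 Normalised cluster fluorescence was curve-fitted, and each design's median over clusters is its apparent KD. Before this, SNAP-549-labelled MS2 coat protein was titrated from 0.7 or 1.5 nM, doubling to 3 µM, over RNA switches transcribed on Illumina chips by stalled E. coli RNA polymerase. Titrations had no input, 200 uM small-molecule ligand, or an oligonucleotide input, and steps lasted 0.8–1.5 h (lowest) to 10–20 min (highest).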

[1] = input ligand: microRNA oligo, concentration not stated
[2] = Eterna round: R95, input ligand: FMN 200 uM
[3] = Eterna round: R95, input ligand: microRNA oligo, concentration not stated
[4] = Eterna round: R95, input ligand: none

Sequence	apparent KD of MS2 coat protein (input ligand: FMN 200 uM) [nM]	apparent KD of MS2 coat protein [1] [nM]	apparent KD of MS2 coat protein (input ligand: none) [nM]	apparent KD of MS2 coat protein [2] [nM]	apparent KD of MS2 coat protein [3] [nM]	apparent KD of MS2 coat protein [4] [nM]
GUAAUAAAGGAAGGAUAUGGGUAAACGGGAAUCCCAGAAGGUCCACAUGAGGAUCACCCAUGUGGUCCCGAAACCACGGGACCG [Enbive] (Eterna round: R96, puzzle: Same State NG 1)	84.2	60.5	75	–	–	–
GAGUGGCAGUUAGGAUAUAUAGUGAUAAUCACAGUAGAAGGAACUGACAUGAGGAUCACCCAUGUAGGACUAAUCCAGAGAGAG [Parity 41 - Jieux - Same State NG 1] (Eterna round: R96, puzzle: Same State NG 1)	65.7	29.8	44.2	–	–	–
GAUAGACAUGAGGAUCACCCAUGUGACAAAACCACAGGAUAUCAUGCAGGCGUAACUGCAUGAGAAGGGUGAGACU [Quanve] (puzzle: Same State 1)	–	–	–	61.1	20.6	35.8
UGUUGUAUUACAGGAUAUCUAUGAUUUUUAUCUAGAGAAGGGUAUUCACAUGAGGAUCACCCAUGUAUAUACGAGGAAGUUGUG [JMF's solution 69] (Eterna round: R96, puzzle: Same State NG 1)	–	25.1	–	–	–	–
GCUAGAAUUAAAGCCAACAUGAGGAUCACCCAUGUAUGUUGGCAGGAUAUCGUUUGCAAAGCAAACGAGAAGGGCUAAACUAGC [Mat - Same State NG 3 - JL Mod - D4] (Eterna round: R96, puzzle: Same State NG 3)	197	100	244	–	–	–
CCAACAUACAAUUUAAGAUCACAUGAGGAUCACCCAUGUAUGCAGGAUAUCAGCUCGUUUAGAGCUGAGAAGGGCAAUUUAAUU [SSNG3/1-A3] (Eterna round: R96, puzzle: Same State NG 3)	99	158	202	–	–	–
GUUACAUGAGGAUCACCCAUGUAUGUGUGGGAGUAAGUGUCUUAGGAUAUCUAUUAUUUAAUUUUAGAGAAGGAAGAUUGUUGU [JMF's solution 27] (Eterna round: R96, puzzle: Same State NG 3)	138	105	120	–	–	–
AUUGCUUUCGCAGGAUAUGAUGCGAAAAUUGCGUCAGAAGGGUGGAGUAUCUCAUUGCAAGAGGACAUGAGGAUCACCCAUGUC [SameState NG1 #87] (Eterna round: R96, puzzle: Same State NG 1)	40.5	140	216	–	–	–
AAAAUGGGAUUUUACAUGAGGAUCACCCAUGUGGGUAUCACUGAGGAUAUGAGGAUCUUGAAAAAUCAGAAGGCAGAAUUUCAA [AK SSNG3-V2-21] (Eterna round: R96, puzzle: Same State NG 3)	410	288	329	–	–	–
AGCGAACAGUCCUCAAAGGCAACAUGAGGAUCACCCAUGUCAUAGGAUAUGCUAAAAGCUCAGUAGCAGAAGGAUGGAGGACUG [Edatusbe] (Eterna round: R96, puzzle: Same State NG 3)	19.5	28.1	23.5	–	–	–
GGGUAGGAGCUACAGGAUAUAUAGAAGUUGACAUGAGGAUCACCCAUGUAAGGGUACGGAGGCGGAUAGAAGGGUAUGGGAGGUG [JR_SS2_Sub033] (puzzle: Same State 2)	–	–	–	55.5	54.2	64.9
UGGUACAUGGGAGGAUAUCAUGUAGACAUGAGGAUCACCCAUGUAGCCAUGGAGACAUGGGAGAAUGAGAAGGCCCAUGUACCU [JL SSNG1 3.54] (Eterna round: R96, puzzle: Same State NG 2)	298	14.1	104	–	–	–
GAGGGCGAAAGCGACAUGAGGAUCACCCAUGUCCUCGGAGGACAGGAUAUCCGGCAAAAGCCGAAGGAGAAGGGUCGAAAAGAA [AK SSNG3-V2-37] (Eterna round: R96, puzzle: Same State NG 3)	47.2	69.7	136	–	–	–
GGAGCCAAGGCAGGAUAUUCAUAUUAAAACAUGAGGAUCACCCAUGUAAAGGCCAGAAGGCCGUGGGAGAAGGGCCAUGGCUCG [Xeonanis - 13 mod15] (Eterna round: R96, puzzle: Same State NG 2)	38.5	51.7	116	–	–	–
GUGCGAGUGCCACAGGAUAUACGUGGAUCGACAUGAGGAUCACCCAUGUAUAUCCUAAUAAUUGCGUAGAAGGGUGGUCAGUCGG [Inzage] (puzzle: Same State 2)	–	–	–	136	74.8	105
GGAGAAUAACUAGAGGAUAUCCGAGUGGUAACAUGAGGAUCACCCAUGUGAUGAAAGGAACAUGAGGAGAAGGCUAGAAUGAAGG [Mat - Same State 2 - Mod of JL - D85] (puzzle: Same State 2)	–	–	–	37.3	34.9	77.6

Sequence	apparent KD of MS2 coat protein (input ligand: FMN 200 uM) [nM]	apparent KD of MS2 coat protein [1] [nM]	apparent KD of MS2 coat protein (input ligand: none) [nM]	apparent KD of MS2 coat protein [2] [nM]	apparent KD of MS2 coat protein [3] [nM]	apparent KD of MS2 coat protein [4] [nM]
AACAAUCUAUCUGAGGAUAUCAUGAAAUAAACAUGAGGAUCACCCAUGUGCAGGAAAUCUGCAUAUGAGAAGGCAGAUAGAUUGA [salish99_ss2_r3_043] (puzzle: Same State 2)	–	–	–	33.9	1240	4600
CCCGCGUUUCGCGCCUACAUGAGGAUCACCCAUGUUUGUAGGCAGGAUAUCGUCCGCUCUGCGGGCGAGAAGGGCUGUCGUGGU [salish99_SSNG3_R04_030] (Eterna round: R96, puzzle: Same State NG 3)	65.7	53.5	70.1	–	–	–
AUCCUACAUGAGGAUCACCCAUGUGACGCCUCGAUAGGAUAUGCGUGUGCCUUGGCGCAUGCAGAAGGAUUGGAGC [JL Aveso mod 5] (puzzle: Same State 1)	–	–	–	88.4	72.6	78.5
AAACGAAACACGGCCACAUGAGGAUCACCCAUGUCGAGUUCACAGGAUAUACCUACGUCCUCGUGGUAGAAGGGUGAGGCUGUG [Rienat] (Eterna round: R96, puzzle: Same State NG 3)	750	39.5	215	–	–	–
AAAAUACAUGAGGAUCACCCAUGUAGAAACUACACAGGAUAUCGGACGGCUGUAGCCAAACGAGAAGGGUGAACCC [Ramazaza] (puzzle: Same State 1)	–	–	–	90.8	60.8	92
GAGUAGUUGAUAGGAUAUUGAUUGUUGUAGGAUCAAGAAGGAUCUAACAUGAGGAUCACCCAUGUAGGACUAUUCCUGUGUAUC [Parity 85 - Jieux - Same State NG 1] (Eterna round: R96, puzzle: Same State NG 1)	18.6	13.7	21.4	–	–	–
GCGCUACAUGAGGAUCACCCAUGUGCGAACGCACGAGGAUAUGCAUGGGCUAAUGCUGGUGCAGAAGGCGUGGCGC [Pin2Pin #8] (puzzle: Same State 1)	–	–	–	–	23.8	–
AACAAUCUAUCUGAGGAUAUCAUGAAAUAAACAUGAGGAUCACCCAUGUGCAGGAAAACUGUAUAUGAGAAGGCAGAUAGAUUGA [salish99_ss2_r3_046] (puzzle: Same State 2)	–	–	–	14.8	69.2	101
GCUAGUAUAAUUGCUAACAUGAGGAUCACCCAUGUAUGUUGGCAGGAUAUCGUUUGCAAAGCAAACGAGAAGGGCUAAACUAGC [Mat - Same State NG 3 - JL Mod - D14] (Eterna round: R96, puzzle: Same State NG 3)	36.3	103	104	–	–	–
UGUUGUAUUACAGGAUAUCUAUUAGUGUUAUUUAGAGAAGGGUAUUCACAUGAGGAUCACCCAUGUAUAUACGAGGAAGUUGUG [JMF's solution 90] (Eterna round: R96, puzzle: Same State NG 1)	65.1	37.4	57.4	–	–	–
AACAAUCUAUCUGAGGAUAUCAUGAAAUAAACAUGAGGAUCACCCAUGUGCAGGAAAUCUGCAUAUGAGAAGGCAGAUAGAUUGA [salish99_ss2_r3_043] (Eterna round: R96, puzzle: Same State 2)	–	672	–	–	–	–
AAGAGGUCCGCAGGAUAUACCCGGCCUCGCCGGGUAGAAGGGUGAACCUCAUAACCCACCACACACAUGAGGAUCACCCAUGUA [Enisaon] (Eterna round: R96, puzzle: Same State NG 1)	494	1.93	111	–	–	–
GAGUGGUGGAGAGGAUAUACAUUGUUAUUCACUGUAGAAGGUUCUAACAUGAGGAUCACCCAUGUAGGACUAUUCCUGAGUUUU [Parity 56 - Jieux - Same State NG 1] (Eterna round: R96, puzzle: Same State NG 1)	–	8.92	–	–	–	–
UAAAGAUCGCGAGGAUAUCGCGAGGAUCACCCGUGAGAAGGCGCAGAGCCGAGGAUCACCCGGCUGAUCCUGAGGAGGAGGUAA (Eterna round: R96, puzzle: Same State NG 1)	249	410	556	–	–	–
AACAUGAGGAUCACCCAUGUAGAAAAGUGAGGCAGCUCAGGGAAGGAUAUGGUUGACACCCUCGACCAGAAGGUCCAAAAUAAA [Argeatonra] (Eterna round: R96, puzzle: Same State NG 3)	31.2	54.2	63.6	–	–	–
